Assay results as given in patent publication US20160137746A1, “METHODS FOR TREATING HIGH CARDIOVASCULAR RISK PATIENTS WITH HYPERCHOLESTEROLEMIA” (Sanofi Biotechnology, priority 2014, published 2016).

Test system: high cardiovascular risk patients with hypercholesterolemia
Test: ODYSSEY LONG TERM: long-term safety and tolerability
[1] = alirocumab patients with two consecutive LDL-C <25 mg/dL (n = 562), pre-specified analysis
[2] = all alirocumab patients (n = 1550), pre-specified analysis

Procedure: Safety parameters (adverse events [including adjudicated cardiovascular events], laboratory data, vital signs, and ECG) were assessed throughout the study.
Safety endpoints assessed in this trial were: cardiovascular events; allergic events; local tolerability at injection site; other adverse events (including hemolytic anemia); laboratory tests: urinalysis, hematology (red blood cell count, red blood cell distribution width (RDW), reticulocyte count, hemoglobin, hematocrit, platelets, white blood cell count with differential blood count), standard chemistry (sodium, potassium, chloride, bicarbonate, calcium, phosphorous, urea nitrogen, creatinine, uric acid, total protein, albumin, LDH, γ Glutamyl Transferase [γGT]), Vitamin E (alpha tocopherol) and other Fat Soluble Vitamins, cortisol (and reflexive ACTH levels, as needed, followed by ACTH stimulation test, as needed), Gonadal Hormone Assessments, Hepatitis C antibody, liver panel (ALT, AST, ALP, and total bilirubin), and CPK; vital signs including heart rate and blood pressure; and 12-lead ECG.
The safety population included all randomized patients who received at least one dose or part of a dose of the double-blind IMP.
Safety analyses were descriptive, performed on the safety population according to treatment actually received. The safety analysis focused on the TEAE period defined as the time from the first dose of double-blind injection up to 70 days after the last double-blind injection. TEAE which developed, worsened or became serious or PCSA occurring after the patient's first injection in the open-label extension study (LTS13643) were not considered in the TEAE period. TEAE period was truncated at the common study cut-off date.

Alirocumab: human anti-PCSK9 antibody; HCVR SEQ ID NO:1, LCVR SEQ ID NO:6; CDRs SEQ ID NOs 2/3/4/7/8/10
TEAEs by System-Organ-Class: Investigations (lab parameters), % of patients [1]: 3.7% (21)
TEAEs by System-Organ-Class: Metabolism and nutrition disorders, % of patients [1]: 8.0% (45)
TEAEs by System-Organ-Class: Musculoskeletal and connective tissue disorders, % of patients [1]: 22.6% (127)
TEAEs by System-Organ-Class: Neoplasms, benign, malignant (incl cysts/polyps), % of patients [1]: 3.0% (17)
TEAEs by System-Organ-Class: Nervous system disorders, % of patients [1]: 11.2% (63)
TEAEs by System-Organ-Class: Psychiatric disorders, % of patients [1]: 4.3% (24)
TEAEs by System-Organ-Class: Renal and urinary disorders, % of patients [1]: 3.6% (20)
TEAEs by System-Organ-Class: Reproductive system and breast disorders, % of patients [1]: 2.0% (11)
TEAEs by System-Organ-Class: Respiratory, thoracic, and mediastinal disorders, % of patients [1]: 7.7% (43)
TEAEs by System-Organ-Class: Skin and subcutaneous tissue disorders, % of patients [1]: 6.9% (39)
TEAEs by System-Organ-Class: Vascular disorders, % of patients [1]: 5.0% (28)
TEAEs leading to discontinuation, % of patients [1]: 3.6% (20)
TEAEs, % of patients [1]: 71.9% (404)
Treatment-emergent SAEs, % of patients [1]: 14.6% (82)
AE of special interest: All adjudicated cardiovascular events, % of patients [2]: 4.0% (62)
AE of special interest: General allergic reaction events, % of patients [2]: 9.0% (140)
AE of special interest: Haemolytic anaemia, % (n) of patients [2]: 0
AE of special interest: Neurocognitive disorders, % of patients [2]: 1.2% (18)
AE of special interest: Neurological events, % of patients [2]: 4.2% (65)
AE of special interest: Ophthalmological events, % of patients [2]: 2.5% (38)
AE of special interest: Treament-emergent local injection site reactions, % of patients [2]: 5.8% (90)
Neurocognitive AE: Amnesia, % of patients [2]: 0.3% (5)
Neurocognitive AE: Any neurocognitive disorder, % of patients [2]: 1.2% (18)
Neurocognitive AE: Confusion postoperative, % of patients [2]: <0.1% (1)
Neurocognitive AE: Confusional state, % of patients [2]: 0.3% (4)
Neurocognitive AE: Dementia, % of patients [2]: <0.1% (1)
Neurocognitive AE: Disorientation, % of patients [2]: <0.1% (1)
Neurocognitive AE: Disturbance in attention, % of patients [2]: <0.1% (1)
Neurocognitive AE: Frontotemporal dementia, % of patients [2]: <0.1% (1)
Neurocognitive AE: Memory impairment, % of patients [2]: 0.3% (5)
Neurocognitive AE: Transient global amnesia, % of patients [2]: <0.1% (1)
TEAE ALT increase, % of patients [2]: 1.1%
TEAE AST increase, % of patients [2]: 0.2%
TEAE Angina pectoris, % of patients [2]: 2.1% (32)
TEAE Arthralgia, % of patients [2]: 4.5% (70)
TEAE Atrial fibrillation, % of patients [2]: 1.4% (22)
TEAE Back pain, % of patients [2]: 4.7% (73)
TEAE Bronchitis, % of patients [2]: 5.2% (80)
TEAE CPK increase, % of patients [2]: 0.5%
TEAE Cellulitis, % of patients [2]: 1.4% (22)
TEAE Confusion, % of patients [2]: 2.3% (35)
TEAE Constipation, % of patients [2]: 1.9% (30)
TEAE Cough, % of patients [2]: 3.2% (49)
TEAE Depression, % of patients [2]: 1.8% (28)
TEAE Diabetes in patients with history of diabetes (Company MedDRA Query "diabetes"), number as printed [2]: 48
TEAE Diabetes in patients with no history of diabetes (Company MedDRA Query "diabetes"), number as printed [2]: 19
TEAE Diarrhea, % of patients [2]: 5.3% (82)
TEAE Dizziness, % of patients [2]: 2.5% (38)
TEAE Fall, % of patients [2]: 2.8% (43)
TEAE Fatigue, % of patients [2]: 3.0% (47)
TEAE Gastoenteritis, % of patients [2]: 2.4% (37)
TEAE Headache, % of patients [2]: 4.8% (74)
TEAE Hypertension, % of patients [2]: 3.5% (54)
TEAE Influenza, % of patients [2]: 5.4% (84)
TEAE Injection site reaction, % of patients [2]: 5.7% (89)
TEAE Muscle spasms, % of patients [2]: 3.7% (58)
TEAE Musculoskeletal pain, % of patients [2]: 2.3% (36)
TEAE Myalgia, % of patients [2]: 4.9% (76)
TEAE Nasopharyngitis, % of patients [2]: 12.6% (196)
TEAE Nausea, % of patients [2]: 2.4% (37)
TEAE Non-cardiac chest pain, % of patients [2]: 1.8% (28)
TEAE Osteoarthritis, % of patients [2]: 2.3% (35)
TEAE Pain in extremity, % of patients [2]: 3.0% (46)
TEAE Rhinitis, % of patients [2]: 1.4% (22)
TEAE Sinusitis, % of patients [2]: 2.6% (40)
TEAE Type-2 diabetes mellitus, % of patients [2]: 1.7% (27)
TEAE leading to death, % of patients [2]: 0.5% (7)
TEAEs by System-Organ-Class: Blood and lymphatic system disorders, % of patients [2]: 2.4% (37)
TEAEs by System-Organ-Class: Cardiac disorders, % of patients [2]: 9.1% (141)
TEAEs by System-Organ-Class: Ear and labyrinth disorders, % of patients [2]: 2.0% (31)
TEAEs by System-Organ-Class: Eye disorders, % of patients [2]: 6.5% (100)
TEAEs by System-Organ-Class: Gastrointestinal disorders, % of patients [2]: 18.6% (288)
TEAEs by System-Organ-Class: General disorders and administration site conditions, % of patients [2]: 15.4% (238)
TEAEs by System-Organ-Class: Injury, poisoning, and procedural complications, % of patients [2]: 13.4% (207)
TEAEs by System-Organ-Class: Investigations (lab parameters), % of patients [2]: 6.1% (95)
TEAEs by System-Organ-Class: Metabolism and nutrition disorders, % of patients [2]: 9.1% (141)
TEAEs by System-Organ-Class: Musculoskeletal and connective tissue disorders, % of patients [2]: 27.2% (422)
TEAEs by System-Organ-Class: Neoplasms, benign, malignant (incl cysts/polyps), % of patients [2]: 2.5% (38)
TEAEs by System-Organ-Class: Nervous system disorders, % of patients [2]: 17.0% (264)
TEAEs by System-Organ-Class: Psychiatric disorders, % of patients [2]: 5.9% (91)
TEAEs by System-Organ-Class: Renal and urinary disorders, % of patients [2]: 4.6% (72)
TEAEs by System-Organ-Class: Reproductive system and breast disorders, % of patients [2]: 2.5% (38)
TEAEs by System-Organ-Class: Respiratory, thoracic, and mediastinal disorders, % of patients [2]: 11.0% (171)
TEAEs by System-Organ-Class: Skin and subcutaneous tissue disorders, % of patients [2]: 9.1% (141)
TEAEs by System-Organ-Class: Vascular disorders, % of patients [2]: 7.9% (122)
TEAEs leading to discontinuation, % of patients [2]: 6.2% (96)
TEAEs, % of patients [2]: 78.6% (1218)
Treatment-emergent SAEs, % of patients [2]: 16.5% (255)
Injection-site reactions (final analysis): 5.9%
Myalgia (final analysis): 5.4%
Neurocognitive events (final analysis): 1.2%
Ophthalmological events (final analysis): 2.9%
Patients with two consecutive calculated LDL cholesterol levels of less than 25 mg/dL (575 patients) (final analysis): 38%
Treatment-emergent adverse events (final analysis): 81%
Treatment-emergent adverse events leading to study-drug discontinuation (final analysis): 7.2%
Alanine aminotransferase > 3 × ULN, % of patients (pre-specified analysis): 1.6%
Alanine aminotransferase > 3 × ULN, n/N of patients (pre-specified analysis): 25/1532
Aspartate aminiotransferase >3 × ULN, % of patients (pre-specified analysis): 1.2%
Aspartate aminiotransferase >3 × ULN, n/N of patients (pre-specified analysis): 19/1532
Creatine kinase > 3 × ULN, % of patients (pre-specified analysis): 3.3%
Creatine kinase > 3 × ULN, n/N of patients (pre-specified analysis): 50/1507
Deaths reported during the study (pre-specified analysis): 11 (0.7%) n (%)
Diarrhea (TEAE preferred term) (pre-specified analysis): 5.3%
Headache (TEAE preferred term) (pre-specified analysis): 4.8%
Hemolytic anaemia (pre-specified analysis): No case
Influenza (TEAE preferred term) (pre-specified analysis): 5.4%
Injection site reaction (TEAE preferred term) (pre-specified analysis): 5.7%
Nasopharyngitis (TEAE preferred term) (pre-specified analysis): 12.6%
Neurocognitive disorders (pre-specified analysis): 18 (1.2%) n (%)
Patients with LDL-C <25 mg/dL in two or more consecutive periods, share of population treated with alirocumab (562 out of 1550) (pre-specified analysis): 36.3%
Patients with impaired glucose control at baseline defined as diabetic in the TEAE period (pre-specified analysis): 36 (6.3%) n (%)
Patients with two consecutive calculated LDL-C values <25 mg/dL (<0.65 mmo/L) (pre-specified analysis): 562 (37.4%) n (%)
SOC gastrointestinal disorders (pre-specified analysis): 18.6%
SOC general disorders and administration site conditions (pre-specified analysis): 15.4%
SOC injury, poisoning and procedural complications (pre-specified analysis): 13.4%
SOC musculoskeletal and connective tissue disorders (pre-specified analysis): 27.2%
SOC nervous system disorders (pre-specified analysis): 17.0%
SOC respiratory, thoracic and mediastinal disorders (pre-specified analysis): 11.0%
Safety in patients with two consecutive calculated LDL-C <25 mg/dL (pre-specified analysis): No particular safety concern
TEAE leading to death (pre-specified analysis): 7 (0.5%) n (%)
Time to first injection site reaction (pre-specified analysis): 57 days
Treatment-emergent local injection site reaction (pre-specified analysis): 90 (5.8%) n (%)
